± gives the uncertainty stated by the source.

A short description of the series: amyloid nucleation score (Sup35N fusion, yeast selection) (log enrichment); library NNK2; higher = more nucleation; inactive = no reads after selection. Summed up: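 Nucleation score is defined as the DiMSum log enrichment of output over input reads, with centring on the mode score of non-aggregating sequences. A minimum of 100 input reads was required for each sequence. Reads came from Illumina sequencing of plasmid inserts from psi-negative yeast expressing Sup35N fused to peptides of 20 random codons, induced with 100 μM copper sulfate for 24 hours and grown 7 days at 30°C on medium lacking adenine and uracil.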
DDGMCRRYCLGRKYTMGIEL yielded an amyloid nucleation score of 1.78 ± 0.14.

Regarding EEKDQRLISDSWGMF, the amyloid nucleation score is -0.013 ± 0.56.

Turning to THCFCGTNGWVMWGSPEGLA, the amyloid nucleation score was found to be 0.179 ± 0.55.

In turn, RVTHAFCSSINGTNANYPRR returned an amyloid nucleation score of 2.54 ± 0.097.

Consider SSNSANVILASYEDYRRVNP, for which the amyloid nucleation score is -0.526 ± 0.79.

For the substance YFPIASALNCSLGCARCCES, the amyloid nucleation score worked out at 0.669 ± 0.74.

KRHMVSS displayed an amyloid nucleation score of 1.72 ± 0.42.

Take ADDCLRTCSNKLKTQAGLW: the amyloid nucleation score came to 1.38 ± 0.35.

Turning to HRSLIIF, the amyloid nucleation score was 1.97 ± 0.19.

With FDVESMSNDLMAQWHKMLAC, the amyloid nucleation score was -0.452 ± 0.48.

For GNSLNSYLSE, the amyloid nucleation score was -0.346 ± 0.42.

As for VFWHMSIIHIVCRIILSKDW, the amyloid nucleation score result is “inactive”.

In the case of IREEGQFSLAVFSYMKVSPY, the amyloid nucleation score was found to be 2.95 ± 0.071.

MFYLCLRVVFRLKSWDFCDK: the amyloid nucleation score is -0.271 ± 0.34.

LRLFFNYWSNWGATEKNYIL gave an amyloid nucleation score of -1.52 ± 1.1.

Take HSKGHILLTSNSNVFRLGRS: the amyloid nucleation score came out at 0.166 ± 0.62.

In turn, CFCWLLNSNLKGNLSRGRHL showed an amyloid nucleation score of -0.337 ± 1.1.

RGVLTSSLFPSKGRWVVGHW: the amyloid nucleation score turned out to be 2.35 ± 0.075.

LGNWCGYWYFHHISSYGLMR showed an amyloid nucleation score of -0.419 ± 0.5.

With RILIINLSPNEYMIGLH, the amyloid nucleation score is 4.3 ± 0.1.

As to TSRWDWIINSVRHIYWFSCF, the amyloid nucleation score was determined as 4.26 ± 0.12.

Regarding WCFLT, the amyloid nucleation score is -0.343 ± 1.1.

In turn, SWWAY had an amyloid nucleation score of 0.69 ± 0.62.

As for HGDMYRRQDVVSGSNE, the amyloid nucleation score came out at 0.153 ± 0.49.

Take LSFISRRDNDGYMICEYSLP: the amyloid nucleation score is 0.264 ± 0.65.

With RSYLVFYTRYLTFNGPSTKF, the amyloid nucleation score is 7.79 ± 0.08.

On to VILVSVASINSRCVIGFSKF, for which the amyloid nucleation score came out at 4.64 ± 0.07.

With KSCDIL, the amyloid nucleation score was -0.335 ± 0.79.

On to IDLFVCAESMDRRGVTIPRS, for which the amyloid nucleation score came out at 0.041 ± 0.35.

Substance PKFTMVPNNGMQVGIARNKW yielded an amyloid nucleation score of 0.43 ± 0.29.

FWEYEPLPPQQMSTFPD showed an amyloid nucleation score of -0.106 ± 0.79.

With HKETSFDGHFAICWCYTCRH, the amyloid nucleation score is 5.216 ± 0.046.

Consider NNRSELVPKSANRMGFTSLA, for which the amyloid nucleation score was -0.278 ± 0.29.

Take LRIRYFSFDIIVLEGYIRSA: the amyloid nucleation score was -0.205 ± 0.29.

With ADQWGTRVWPGWEFVLEVAA, the amyloid nucleation score came to 1.33 ± 0.31.

ITTHMCYVFMWREIRAKDVD came in with an amyloid nucleation score of 0.484 ± 0.8.

Substance SYFSCCLFFRAFSTFFGVIP displayed an amyloid nucleation score of 3.33 ± 0.11.

Turning to FIPYKYAVHSS, the amyloid nucleation score came to 0.166 ± 0.62.

In turn, SKCLSIPISCFTCVLLCYFF displayed an amyloid nucleation score of 0.936 ± 0.17.

For QGLFLLSCPSSN, the amyloid nucleation score turned out to be 2.54 ± 0.11.

In turn, TNAACSPLTCGHQMAVSPNY had an amyloid nucleation score of 0.358 ± 0.32.

The substance KNDLRSSGWTAGSGISLEEG yielded an amyloid nucleation score of -0.365 ± 0.76.

YRKHRLLH showed an amyloid nucleation score of -0.893 ± 0.76.

In turn, RVPGRDALSIASWLQSTGQV gave an amyloid nucleation score of 1.03 ± 0.21.

The substance YPCKSDF displayed an amyloid nucleation score of -1.66 ± 0.45.

For the substance KLPLFTSMCCTGHFPPITPP, the amyloid nucleation score amounted to 0.409 ± 0.8.

Take ALNPVCL: the amyloid nucleation score was 0.623 ± 0.62.

Consider CTCQVFPHNALCQGSWVLPV, for which the amyloid nucleation score turned out to be 1.07 ± 0.27.

LSALCES showed an amyloid nucleation score of 0.98 ± 0.53.

The substance FACNLGFMTSSFMRWSNTSA had an amyloid nucleation score of 0.356 ± 0.33.

In turn, QGTRAYQSKALTVSIMLMLV displayed an amyloid nucleation score of 3.45 ± 0.096.

Substance IKCRVITQSCIPSSINRLDG showed an amyloid nucleation score of -0.114 ± 1.1.

With RIDGVFTIVSFYMELEGIRV, the amyloid nucleation score entry was “inactive”.

On to ADMIMRYKG, for which the amyloid nucleation score was found to be 0.879 ± 0.57.

SYASWYCLYCKNSGQGFLFE displayed an amyloid nucleation score of 7.948 ± 0.026.

FNRFLKYMPSSWLWQGCSVQ yielded an amyloid nucleation score of -0.451 ± 0.36.

GSSGLCIRSSLIYFVCQTVW: the amyloid nucleation score worked out at 6.903 ± 0.054.

(Values after the supplement of paper PMC12042874.)
